According to US20170209558A1:

Key:
[1] = target: Basigin (residues 22-205) (UniProt P35613); assay: SPR, RH5ΔNL (8 to 0.0625 µM) injected over immobilized basigin, 1:1 binding model; RH5ΔNL fragment (residues 140-526 lacking 248-296)
[2] = target: Basigin (residues 22-205) (UniProt P35613); assay: not stated; given for comparison with the SPR value of RH5ΔNL; full-length RH5 (FLRH5)

How did the Kd [1] turn out when “RH5ΔNL (PfRH5 fragment, 7G8 strain, residues 140-526 lacking residues 248-296, C-terminal hexa-histidine tag) (from UniProt Q8IFM5 140-526) (ligand)” was run?
The Kd was 1.3 µM.

For “full-length PfRH5 (7G8 strain), recombinant, C-terminal hexa-histidine tag (from UniProt Q8IFM5 24-526) (ligand)”, which Kd [2] is on record?
Its Kd is 1.1 µM.
